Experimental data: patent US20090285813A1

Target: human CD3 (human) (UniProt P07766)
Test: cell-based or functional assay

Sequence of human CD3 (human) (P07766 23-207): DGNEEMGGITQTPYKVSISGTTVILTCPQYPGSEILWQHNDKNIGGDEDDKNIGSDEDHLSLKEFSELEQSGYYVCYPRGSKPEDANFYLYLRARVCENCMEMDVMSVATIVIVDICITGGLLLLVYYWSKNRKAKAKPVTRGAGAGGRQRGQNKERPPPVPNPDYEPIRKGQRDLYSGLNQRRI

- Apo-One Apoptosis Assay, 12.5 ng/ml: 250
- Apo-One Apoptosis Assay, 25 ng/ml: 259
- Apo-One Apoptosis Assay, 50 ng/ml: 234
Substance: Irrelevant human IgG1 (EMD Biosciences Cat. 400120) (antibody)
